Reference: article PMC6197187

Biological target: Recombinant human Tau-40 protein (human) (UniProt P10636)
Experiment: solution binding assay, then SDS-PAGE and western blotting; 1 µg tau and 1 µg recombinant apoE incubated 1 h at 37 °C in 20 µl PBS (pH 7.4); ended with sample buffer without 2-mercaptoethanol, boiled 5 min; immunoblot for tau (HT7) and apoE

Sequence of Recombinant human Tau-40 protein (human) (P10636 other isoform, or with tags, fused parts or gaps): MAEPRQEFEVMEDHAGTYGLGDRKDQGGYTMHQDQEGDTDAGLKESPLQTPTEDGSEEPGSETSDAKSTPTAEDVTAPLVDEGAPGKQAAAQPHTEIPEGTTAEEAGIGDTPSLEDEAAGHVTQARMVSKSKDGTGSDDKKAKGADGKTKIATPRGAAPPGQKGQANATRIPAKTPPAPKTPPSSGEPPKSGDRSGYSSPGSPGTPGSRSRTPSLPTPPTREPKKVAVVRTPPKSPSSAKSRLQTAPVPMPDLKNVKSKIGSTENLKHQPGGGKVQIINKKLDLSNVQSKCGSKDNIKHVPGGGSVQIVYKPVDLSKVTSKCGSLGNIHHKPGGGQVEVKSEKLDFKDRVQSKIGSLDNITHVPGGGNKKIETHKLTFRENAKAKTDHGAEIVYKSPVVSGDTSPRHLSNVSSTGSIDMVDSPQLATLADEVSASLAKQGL

N of band A: 2 tau per apoE | N of band B: 2 apoE per tau
Substance: Recombinant human apoE2 protein (from UniProt P02649 19-317) (natural protein)
